From patent publication US20260201032A1 (UNIVERSITAT DE BARCELONA, published 2026)

Molecular target: T1, CD229 hDI/DIII/DIV mDII (human; mouse, UniProt Q9HBG7 48-158; Q01965 159-249; Q9HBG7 251-655, limits assumed)
T1 construct: domain: DI;domain: DII;domain: DIII/DIV; Expressed on transiently transfected COS cells; also called chimeric mouse human molecule where the second Ig domain of Ly9 was substituted the corresponding mouse domain
T1 sequence (looked up): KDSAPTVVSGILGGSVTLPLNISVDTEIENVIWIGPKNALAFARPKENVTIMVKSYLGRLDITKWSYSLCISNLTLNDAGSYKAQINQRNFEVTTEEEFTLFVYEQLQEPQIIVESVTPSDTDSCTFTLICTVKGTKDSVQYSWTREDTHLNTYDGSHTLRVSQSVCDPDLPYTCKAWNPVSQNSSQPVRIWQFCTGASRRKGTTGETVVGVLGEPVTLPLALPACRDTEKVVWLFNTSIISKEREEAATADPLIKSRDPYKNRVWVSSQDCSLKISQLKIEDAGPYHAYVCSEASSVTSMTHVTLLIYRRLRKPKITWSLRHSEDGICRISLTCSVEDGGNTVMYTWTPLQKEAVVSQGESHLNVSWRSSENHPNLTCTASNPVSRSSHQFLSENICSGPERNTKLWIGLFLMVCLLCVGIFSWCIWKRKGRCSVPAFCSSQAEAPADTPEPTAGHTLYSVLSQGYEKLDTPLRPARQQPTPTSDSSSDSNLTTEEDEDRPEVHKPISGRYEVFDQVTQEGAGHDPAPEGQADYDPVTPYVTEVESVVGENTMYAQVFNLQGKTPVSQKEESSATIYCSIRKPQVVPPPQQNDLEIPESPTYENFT
Assay: flow cytometry on transiently transfected COS cells
Excerpt: The mapping to the first or second domain was done as described in Romero et al 2005. Three different human Ly9 constructs were used: full-length human Ly9, a Ly9 isoform that […] and a chimeric mouse human molecule where the second Ig domain of Ly9 was substituted the corresponding mouse domain. The transfected cells were stained with different anti-human antibodies using flow cytometry.
^aCOS cells were transiently transfected with chimeric human (h)/mouse (m) constructs or the isoform lacking the first V-like Ig domain (CD229 ΔDI) described in Materials and Methods. CD229 mAbs were assayed by flow cytometry: +, Detection of protein expression, −, nondetection of protein expression. ^bDomain recognized by the mAb.

B1: HLy9.1.84 (antibody, V domains shown)
VH: QMQLQESGPELVKPGASVKISCKASGYTFTHYYINWVQQRPGQGLEWIGWIFPESGSTYYSEKFKAKATLTVDKSSSTAYMLLSSLTSEDSAVYFCARGTGFFDYWGQGTTLTVSS
VL: QIVLTQSPAIMSASPGEKVTVTCSASSSVSYMFWYQQKPGFSPRLLIYDTSNLASGVPVRFSGSGSGTSYSLTISRMEAEDAATYYCQQWSSYPPTFGGGTKLEIK
notes: also called HLy91.184
binding result: no binding
